Measurements taken from the DeepSol protein solubility set.

assay: soluble on expression in E. coli; label from the status in PepcDB or PDB records

Sequence	soluble on expression in E. coli
KRELTVLDLHPGAGKTRRVLPQLVREAVKKRLRTVILAPTRVVASEMYEALRGEPIRYMTPAVQSERTGNEIVDFMCHSTFTMKLLQGVRVPNYNLYIMDEAHFLDPASVAARGYIETRVSMGDAGAIFMTATPPGTTEAFPPSNSPIIDEETRIPDKAWNSGYEWITEFDGRTVWFVHSIKQGAEIGTCLQKAGKKVLYLNRKTFESEYPKCKSEKWDFVITTDISEMGANFKADRVIDPRKTIKPILLDGRVSMQGPIAITPASAAQRRGRIGRNPEKLGDIYAYSGNVSSDNEGHVSWTEARMLLDNVHVQGGVVAQLYTPEREKTEAYEGEFKLKTNQRKVFSELIRTGDLPVWLAFQVASANVEYHDRKWCFDGPNEHLLLENNQEIEVWTRQGQRRVLKPRWLDGRITSDHLNLKSFKEFASGKR	soluble
MSLPEHTPSDRLALDAMLGKLATYLRMCGYDTAYALDRDAEADDDLLDIAEREDRLVITRDSDLATRAPESVLLSEREIEDQLRELADAGFRLSLAPEPDYCGVCNSPVEEVDPVEPTPEYAPSAGDERVWRCTDCGQHFWKGSHWASVEATLEDVEGHHHHHH	soluble
MFADRLFNAMERNEPAPGMVLVAAPSMESEDFARSVILIIEHSEYATFGVNLASRSDVAVFNVIPEWVPCVTKPQALYIGGPLNQQSVVGVGVTAQGVDAARVDNLTRLANRLVMVNLGADPEEIKPLVSGMRLFAGHAEWAPGQLAQEIENGDWFVAPALPSDVTAPGSVDVWGDVMRRQPMPLPLYSTFPVNVVGENLEHHHHHH	soluble
IGQVDFGIAGNFSYNKNEILDLGGGDPNKYLDATDGYSQRNKVGEAMNSYYIYRADGFFNSQEEADAYTAKYGNPFGKTFKAGDLRYVDTNKDGKLTADDREYCGSSDPKIIYGFNINAGWKGIDLSLMFNGAAGVKRLFDGYEVYGNFSGDAAHPATIWRDAWTPDNHDASMPRIFYDTNSASSSRSVQSDFWLQDTSYLRLKNLQLGYTLPKGWLNSVGVENIRIYYSVENLLTFDKMKINIDPESTSQRLSSYPLLRTHAFGVNVTF	not soluble
MSLSETSEHPVDGDELLVRTVLSNQALKRIFTHRTDSMTECYQVEKTFLQSEQSLLIGHQLHPTPKSRQGIDEDEELLFTPERKGSFQLHYFRAACELVDEKSALADSASELIKHDLLHDPNVQDSFKASYCQADDYVLLPVHPLQARKLLGKKEIADLIQAGKLSYLGPQGRAFYPTSSLRTVYHPEAEYMYKFSIPVKITNSLRVNKRKELARGVEVSELLKNGLYDQLKAEHPAFNIVQDPAYITLSLDSEESGLETVIRENPFRQGGEERTTLLAALCQDSIQGNSHLTNLMVELAKQKKISVTEASKWWFSRYLNVSLRPLYWLYATHGIALEAHQQNSIIKLDAEGLPSLFYYRDNQGYYFMQSKAETLKQFVPTLNEQSDTICSDAVAEERFRYYVFFNHLFGLVNAFGTNRLIDEEQLLHILREELTLLRQQFGDPTNLVNSLLHEEMLPCKANLLTRIHDMDELEGSLATQSVYVPVPNPLVVMAGELHEGHHHHHH	soluble
MGSDKIHHHHHHMSSKAEKDIKWGIAPIGWRNDDIPSIGKDNNLQQLLSDIVVAGFQGTEVGGFFPGPEKLNYELKLRNLEIAGQWFSSYIIRDGIEKASEAFEKHCQYLKAINAPVAVVSEQTYTIQRSDTANIFKDKPYFTDKEWDEVCKGLNHYGEIAAKYGLKVAYHHHMGTGIQTKEETDRLMANTDPKLVGLLYDTGHIAVSDGDYMALLNAHIDRVVHVHFKDVRRSKEEECRAKGLTFQGSFLNGMFTVPGDGDLDFKPVYDKLIANNYKGWIVVEAEQDPSKANPLEMAQIAHRYIKQHLIEN	not soluble
MGSDKIHHHHHHMEENYRRYPIGIQNFEQLRNRNCVYVDKTELVYRLANTDSVYFLSRPRRFGKSLLVSTLEAYFQGKKDLFKGLAMERLEKDWNVYPVFHIDFSLTKYTTLFDLQEQLNLFLLRCEKVYGAEKEEKTPAARLQGMIRRAYEQTGLPVVVLIDEYDAPLLDSNSNIPLQQELRNELRKFFSPLKGLGQYLRFLFITGISKFSQMSIFSELNNLKNISMRDDFSAICGITERELLDELRPDIERMALANGETYEAACAHLKRQYDGYHFSKHCEDIYNPFSLFNAFDAKEYKNFWFSTGTPTFLIDLLQETDFDVRQLEGVEATDEQFDAPTERVTSPIPVLYQSGYLTIKGYDPEFQVYRLAYPNGEVRKGFIESLLPAYLELPGQSSTFYVVSFIRDLRKGDIESCLERTRSFFASIPNDLENKTEKHYQTIFYLLFRLMGMYVDSEVKSAVGRADVVIKMQDAIYVLEFKYDGTAREALAQINSRLYAVPYRKDGRRIVKVGINFDSATRTIGDWVIEVEDTVDNL	not soluble
MSLSASPELADKKGIRACPFDEPKASDEINTGFMKIFTGGDTITARALYKEPIYFKPQFKPFLLCNELPTIKSDDDGTWRRLKVIPFLSKFIKHSEATKKMKKEGLPKNHFWADTSLSEKLPDWKQGFMCLLLKYFRKYRKHGLIHPKLVTQHTVEYRKKCDVFQDFIGDYLVRVDNTKKGISVMDLYQNMREWYKSNYTGKCPNAKDLRNYVQHRMPTYNKNAEGHHHHHH	not soluble
MDEFIIKRAKELQGYIVEKRRDFHMYPELKYEEERTSKIVEEELKKLGYEVVRTAKTGVIGILKGKEDGKTVALRADMDALPIQEENDVPYKSRVPGKMHACGHDAHTAMLLGAAKILAEMKDELQGTVKLIFQPAEEGGLGAKKIVEEGHLDDVDAIFGIHVWAELPSGIIGIKSGPLLASADAFRVLIKGKGGHGAAPHLSIDPIALAVDLVNAYQKIISREVDPLQPAVLSVTSIKAGTTFNVIPESAEILGTIRTFDEEVRDYIVRRMKEITENFANGMRCEGKFELTIEHIPPTINNEKLANFARDVLKVLGEIREPKPTMGAEDFAFYTTKAPGLFIFLGIRNEEKGIIYPHHHPKFNVDEDILWMGAAIHSLLTYHYLSL	soluble
MAHHHHHHMEEGGRYAACKAELYKLQEKIKTQETPRDNCAEKEKMWEKQRSELEQEKDECLRTSDAHRTQKQDLEDRVRYMDGLTRAMISEKRFAEERRNISEKENEDLKTRVRVLTHKLGVLTAMVQKLHISHMIKDMGIAMLQAEAKQAAEEMETNHKKDVAAAEERVLQECKEKFCFDSSGNLNAAVFIEHNISKENRSFLLEQLNCSKENQGDTKREWRFWRKGANDSSRPKKSADHSESNGSSHGNNIHLVLRVCLSLLLLTALS	not soluble
MGKEITENIIDVEFKCNHFKMNGYIGNNNIYRSNKNLQHIYINKRFVKSKIIIDAITESYKSIIPIGKHAVCFLNIEVDPSCIDVNIHPNKLEIKFEKEQEVYIELRDFLKVKLIHSNLIGLEHHHHHH	not soluble
MGSDKIHHHHHHMKFKQDYFDQLSGFYSQVTPQGLPRPQWLAWSEDAAALIGLKQPDDELLQGLAGNQAIPGASYYAQVYSGHQFGGYSPQLGDGRSIILGEAEGPQGYWDVALKGAGMTPYSRHGDGRAVMRSAVREFLVSEALHHLNIPTTRALAVIGSDLPVWRETQETAAITVRLAKSHIRFGHFEFFCHSEQGSKDKLKQLLDFTLSQHYPELSRDQAGYIAWFNRVVADTAKLIAHWQAVGFAHGVMNTDNMSILGDSFDFGPFAFLDTFEEDFICNHSDPNGRYAFGQQPGVGLWNLQRLAQALVPIIASDDLIAALNTYQHHLVQAYLVLMRDKLGIKLVEPAGSERDEADLQLIGGFTLLMEANRLDHTNTWRRFAQLDPNSQHSSLRDDFIDLAGFDTWYQAYQERLGQVSDVAGWQAVRAQVNPKYVLRNYLAQEAIIACEEGNTQPLAELHQLLTRPFDEQPEKEAYAKRPPEWGQGLIMSCSS	not soluble
MGSDKIHHHHHHMFLTKVSLLDHPESLPGYLSSLAIVEYLHEQPLEFRAPITVITGENGVGKSTLVEALAVGMRLNPSGGSRHANFGREGDIVSSLHQSLKLVRRENPRDAFFFRGETMYNVASYYEELMGEKNMHDLHKMSHGESVFAVIDRRFNNQGFFVLDEPEAGLSMLRQLELLGKLGNLARGGAQIIMATHSPILLAIPGAEILEITSSGVAKVNFEDAEAVRAAREFVADPRGTAAFLTAEEDHQ	not soluble
MGSDKIHHHHHHMDKIRVIELGSNISAPLVGTILADLGAEVIKVEPPPYGDDRRRVKPEINGISVYFASTNRGKKSVVINLKSDEGYEIFQRLVKTADVIVTNYRPSALKRLKVDYESVKRINPKIIYCSITGFGNLTEEADRPAYDPIILALSGLMDMTGEENPVKFATSISDITTGLLATVMILWALNKGGPTFIDVPMIYTQFYLTLEDAYMYLNTGKVPKRMGSAHRYLVPYQAFKVVDGYIYVAVFNDEQYLKLCKALNREDLCKFDTLQKRVENRDYLIKELGKIFEKNTRDYWVDLLSKADVPVAPVLSLEQAFKKYGNRLVYEIEGVKYIDFPINITSNKSKAPRLGENTKEVLLELGYSEGEINRLAEKGIIMLI	not soluble
DTTGSTPAPIDENGTVLALLPEFEHNPNAMFVLWKDHTSVAKADRINELAHSGKFTDYTRYVGGVYSSEWFWAKAAWVSEQDEQVAKRAFSWVELCDWIPAILADTQHPQKLRRGICAAGHKAMWHESWGGLPEQAFLSAISPTLDGIRDRMFTEVFTSDQAAGYLSKAWAIKLGLPEGIAIAIGEFDCHMGAVGAGAGANDLVKVIGTSTCDILMVESQNVGDRTIHGICGQVEGSAMPELLALEAGQSAFGDMYAWFKNVLMWPLQAYAEHNPDFALTAEEIASELLPMLSQAAEQQGIDQYTPVAMDWLNGRRTPYANQRLKGAICDLNLGSSSPAIFSALVESTAHGAKAIVDCFIEQDVTVERVIAIGGIAQKSPYVMQMCADVIGRDIIVVESDQ	not soluble
MEKFVLSLDEGTTSARAIIFDRESNIHGIGQYEFPQHYPRPGWVEHNPEEIWDAQLRAIKDAIQSARIEPNQIAAIGVTNQRETTLVWDKDGKPLYNAIVWQCRRTAEMVEEIKREYGTMIKEKTGLVPDAYFSASKLKWLLDNVPGLREKAEKGEVMFGTVDTFLIYRLTGEHVTDYSNASRTMLFNIKKLDWDDELLELFDIPESVLPEVRESSEVYGYTKKELLGAEIPVSGDAGDQQAALFGQAAFEAGMVKATYGTGSFILVNTDKMVLYSDNLLTTIAWGLNGRVSYALEGSIFVTGAAVQWLRDGIKIIKHASETEELATKLESNEGVYFVPAFVGLGAPYWDQFARGIIIGITRGTGREHLARATLEAIAYLTRDVVDEMEKLVQIKELRVDGGATANDFLMQFQADILNRKVIRPVVKETTALGAAYLAGLAVDYWADTREIAELWKAERIFEPKMDEKTRERLYKGWKEAVKRAMGWAKVVDSAKSN	soluble
MSVSNMPPIDRAEQSTAHEIQQAKVIDLNDRVLNLDNPDDKMISAFANYAVQTENWQQNALQALTSDKKGLTPEKLLVLQDHVLNYNVEVSLVGTLARKIVAAVETLTRS	soluble
MATSGFKHLVVVKFKEDTKVDEILKGLENLVSQIDTVKSFEWGEDKESHDMLRQGFTHAFSMTFENKDGYVAFTSHPLHVEFSAAFTAVIDKIVLLDFPVAAVKSSVVATP	soluble
MEKREFPVSDRIFPEVSIPYGDKSTKAMQITCACCGAVAYFPHQTGVNRKPPIAATQHFQNKGWVVGGNPRKDFCPIHAAPAKRKGQKAMVDTVATIADKPREMSREDRRIINDKLDEVYAKDAYKSPWTDSAVAKDLGVPRDWVAQVRDQFFGPAGSNPLYDEFLKETKLVEGAFLACEEATARAEKAAADQRRAHGDLCKAMDSYRVLARKVEREISR	not soluble
